{"source": "paper PMC8204385", "about": "(Biophysical Journal, 2021)", "biological_target": "T1, human SHP-1 (Homo sapiens, UniProt P29350)", "T1 construct": "6xHis (N); made in house; host or cells: Escherichia coli BL21-CodonPlus (DE3)-RIPL", "T1 sequence (P29350 whole entry)": "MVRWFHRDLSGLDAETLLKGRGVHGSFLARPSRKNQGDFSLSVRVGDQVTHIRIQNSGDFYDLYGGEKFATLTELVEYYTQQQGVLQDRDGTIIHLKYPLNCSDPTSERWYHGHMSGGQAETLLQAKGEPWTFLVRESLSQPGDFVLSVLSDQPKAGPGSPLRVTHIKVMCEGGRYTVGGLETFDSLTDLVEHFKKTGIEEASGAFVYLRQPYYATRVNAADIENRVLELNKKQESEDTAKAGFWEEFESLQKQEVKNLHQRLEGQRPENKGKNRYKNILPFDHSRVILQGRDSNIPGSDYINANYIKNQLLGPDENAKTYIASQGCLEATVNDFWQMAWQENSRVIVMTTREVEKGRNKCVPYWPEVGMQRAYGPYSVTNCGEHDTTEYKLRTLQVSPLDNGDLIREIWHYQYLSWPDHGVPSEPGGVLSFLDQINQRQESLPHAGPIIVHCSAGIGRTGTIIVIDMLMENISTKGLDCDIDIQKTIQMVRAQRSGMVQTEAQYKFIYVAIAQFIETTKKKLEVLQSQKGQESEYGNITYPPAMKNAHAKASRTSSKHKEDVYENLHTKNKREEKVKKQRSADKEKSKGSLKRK", "assay": "SPR-based assay for tethered SHP-1 reactions on immobilised phosphopeptides, extended MPDPDE model fit", "format": "binding", "settings": "37°C; vertical intercept of regression of L^2 vs number of PEG linkers, all data except PEG0", "note": "Values joined by “and” are separate entries in the source; they are usually repeats but may differ in a detail not shown here. Equal values may be shown once."}
{"substance": "SHP-1: Human tyrosine phosphatase SHP-1 with an N-terminal 6× His tag produced in Escherichia coli", "values": [{"measurement": "molecular reach of SHP-1 (LSHP-1)", "result": "13.0 nm and 13.0 ± 0.8 nm"}]}
